From patent publication US20190233494A1 (Sanofi, published 2019)
Starred links: 1 amine or outer side, 2 acyl side, 3 side chain; linkers in the order of their positions; H or OH if unused. Non-standard residues stand in square brackets, D forms with d. Groups on a side chain read outwards from the residue. *: point of attachment. TTDS = 4-[3-[2-[2-(3-aminopropoxy)ethoxy]ethoxy]propylamino]-4-oxo-butanoyl; Trp(5-F) = N[C@@H](Cc1c[nH]c2ccc(F)cc12)C(=O)O; Phe(4-F) = N[C@@H](Cc1ccc(F)cc1)C(=O)O; γGlu = O=C(O)[C@H](CCC(=O)[*:2])N[*:1]; Palmitoyl = CCCCCCCCCCCCCCCC(=O)*; αMeF = C[C@](N)(Cc1ccccc1)C(=O)O; Myristoyl = CCCCCCCCCCCCCC(=O)*; Cit = NC(=O)NCCC[C@H](N)C(=O)O; αMeK = C[C@](N)(CCCCN)C(=O)O; hLys = NCCCCC[C@H](N)C(=O)O; AEEA = NCCOCCOCC(=O)O; Aib = CC(C)(N)C(=O)O

T1: RXFP1 receptor (endogenous, on OVCAR5 cells) (UniProt Q9HBX9 1-757, limits assumed)
T1 sequence (looked up): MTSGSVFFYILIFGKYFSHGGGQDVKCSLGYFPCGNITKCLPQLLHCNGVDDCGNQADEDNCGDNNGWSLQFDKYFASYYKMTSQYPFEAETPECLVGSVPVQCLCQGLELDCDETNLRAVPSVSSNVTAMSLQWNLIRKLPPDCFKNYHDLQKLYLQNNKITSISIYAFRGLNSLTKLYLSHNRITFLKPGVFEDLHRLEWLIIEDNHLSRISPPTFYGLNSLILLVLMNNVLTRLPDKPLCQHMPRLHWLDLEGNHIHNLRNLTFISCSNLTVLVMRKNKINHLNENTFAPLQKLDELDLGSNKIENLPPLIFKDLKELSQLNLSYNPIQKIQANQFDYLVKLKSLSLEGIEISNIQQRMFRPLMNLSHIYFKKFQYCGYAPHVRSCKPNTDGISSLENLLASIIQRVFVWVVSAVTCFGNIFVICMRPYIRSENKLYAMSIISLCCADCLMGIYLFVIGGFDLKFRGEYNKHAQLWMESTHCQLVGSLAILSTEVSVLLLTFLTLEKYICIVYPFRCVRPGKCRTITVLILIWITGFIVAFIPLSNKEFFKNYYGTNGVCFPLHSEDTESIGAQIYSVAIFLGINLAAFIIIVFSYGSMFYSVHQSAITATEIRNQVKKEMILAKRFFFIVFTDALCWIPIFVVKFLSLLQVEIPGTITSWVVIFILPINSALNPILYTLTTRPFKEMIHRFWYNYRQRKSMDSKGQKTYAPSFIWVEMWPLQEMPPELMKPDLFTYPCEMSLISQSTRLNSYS

B1: peptide of SEQ ID NO: 8 (peptide)
peptide: Ac-LEGREKVRAK(Ac)I[Aib][Aib]EGK([AEEA-AEEA-AEEA-AEEA-γGlu-γGlu-γGlu-Palmitoyl])STFS[αMeK]RAK(Ac)-NH2
SMILES: CCCCCCCCCCCCCCCC(=O)N[C@@H](CCC(=O)N[C@@H](CCC(=O)N[C@@H](CCC(=O)NCCOCCOCC(=O)NCCOCCOCC(=O)NCCOCCOCC(=O)NCCOCCOCC(=O)NCCCC[C@H](NC(=O)CNC(=O)[C@H](CCC(=O)O)NC(=O)C(C)(C)NC(=O)C(C)(C)NC(=O)[C@@H](NC(=O)[C@H](CCCCNC(C)=O)NC(=O)[C@H](C)NC(=O)[C@H](CCCNC(=N)N)NC(=O)[C@@H](NC(=O)[C@H](CCCCN)NC(=O)[C@H](CCC(=O)O)NC(=O)[C@H](CCCNC(=N)N)NC(=O)CNC(=O)[C@H](CCC(=O)O)NC(=O)[C@H](CC(C)C)NC(C)=O)C(C)C)[C@@H](C)CC)C(=O)N[C@@H](CO)C(=O)N[C@H](C(=O)N[C@@H](Cc1ccccc1)C(=O)N[C@@H](CO)C(=O)N[C@@](C)(CCCCN)C(=O)N[C@@H](CCCNC(=N)N)C(=O)N[C@@H](C)C(=O)N[C@@H](CCCCNC(C)=O)C(N)=O)[C@@H](C)O)C(=O)O)C(=O)O)C(=O)O

Biological target: T1, RXFP1 receptor (endogenous, on OVCAR5 …)
Assay: cell-based or functional assay

Binder | EC50 (nM), OVCAR 5 cells (cAMP) [nM] | EMax, OVCAR 5 cells (cAMP) [%]
Ac-[Aib]EGREKVRAK(Ac)I[Aib]IEGK([TTDS-TTDS-TTDS-γGlu-γGlu-γGlu-Palmitoyl])STFS[αMeK]RAK(Ac)-NH2 [peptide of SEQ ID NO: 86] | 0.3 | 95
Ac-LEGREKVRAK(Ac)I[Aib][Aib]EGK([TTDS-TTDS-γGlu-γGlu-γGlu-Palmitoyl])STFS[dK]RAK(Ac)-NH2 [peptide of SEQ ID NO: 16] | 6.8 | 88
Ac-LEGREKVRAK(Ac)I[Aib][Aib]EGK([TTDS-TTDS-TTDS-γGlu-γGlu-γGlu-Palmitoyl])STFTRRAK(Ac)-NH2 [peptide of SEQ ID NO: 93] | 0.77 | 86
Ac-LEGREKVRAK(Ac)IA[Aib]EGK([TTDS-TTDS-TTDS-γGlu-γGlu-γGlu-Palmitoyl])STFS[αMeK]RAK(Ac)-NH2 [peptide of SEQ ID NO: 90] | 0.14 | 97
Ac-LEGREKVRAK(Ac)I[Aib][Aib]EGK([TTDS-TTDS-TTDS-γGlu-γGlu-γGlu-Palmitoyl])STF[dS]KRAK(Ac)-NH2 [peptide of SEQ ID NO: 14] | 3.2 | 90
Ac-LEGREKVRAK(Ac)I[Aib]IEGK([TTDS-TTDS-TTDS-γGlu-γGlu-γGlu-Palmitoyl])STFS[αMeK]RAK(Ac)-NH2 [peptide of SEQ ID NO: 84] | 0.1 | 95
B1 | 1.86 | 92
Ac-LEGREKVRAK(Ac)I[Aib][Aib]EGK([TTDS-TTDS-TTDS-γGlu-γGlu-γGlu-γGlu-Myristoyl])STFS[αMeK]RAK-NH2 [peptide of SEQ ID NO: 97] | 0.29 | 98
Ac-LEGREKVRAK(Ac)I[Aib][Aib]EGK([TTDS-TTDS-TTDS-γGlu-γGlu-γGlu-Palmitoyl])STFSRRAK(Ac)-NH2 [peptide of SEQ ID NO: 87] | 0.1 | 96
Ac-LEGREKVRA[Cit]I[Aib][Aib]EGK([TTDS-TTDS-TTDS-γGlu-γGlu-γGlu-Palmitoyl])STFS[αMeK]RAK(Ac)-NH2 [peptide of SEQ ID NO: 12] | 0.93 | 90
Ac-LEGREKVRAK(Ac)I[Aib][Aib]EGK([TTDS-TTDS-TTDS-γGlu-γGlu-γGlu-Palmitoyl])STFS[Aib]RAK(Ac)-NH2 [peptide of SEQ ID NO: 2] | 2.4 | 99
Ac-LEGREKVR[Aib]K(Ac)I[Aib][Aib]EGK([TTDS-TTDS-TTDS-γGlu-γGlu-γGlu-Palmitoyl])STWS[Aib]RAK(Ac)-NH2 [peptide of SEQ ID NO: 82] | 0.54 | 95
Ac-LEGREKVRAK(Ac)I[Aib][Aib]EGK([TTDS-TTDS-TTDS-γGlu-γGlu-γGlu-Palmitoyl])STFVRRAK(Ac)-NH2 [peptide of SEQ ID NO: 94] | 1.74 | 88
Ac-LEGRERVRAK(Ac)I[Aib][Aib]EGK([TTDS-TTDS-TTDS-γGlu-γGlu-γGlu-Palmitoyl])ST[Trp(5-F)]S[Aib]RRK(Ac)-NH2 [peptide of SEQ ID NO: 92] | 0.1 | 99
Ac-LEGREKVRAK(Ac)I[Aib][Aib]EGK([TTDS-TTDS-γGlu-γGlu-γGlu-Palmitoyl])STWS[dK]RAK(Ac)-NH2 [peptide of SEQ ID NO: 17] | 4.6 | 91
Ac-LEGREKVRAK(Ac)I[Aib][Aib]EGK([TTDS-TTDS-TTDS-γGlu-γGlu-γGlu-Palmitoyl])STF[Aib]KRAK(Ac)-NH2 [peptide of SEQ ID NO: 15] | 2.1 | 85
Ac-LEGREKVRAK(Ac)I[Aib][Aib]EGK([TTDS-TTDS-TTDS-γGlu-γGlu-γGlu-Myristoyl])STFS[αMeK]RAK-NH2 [peptide of SEQ ID NO: 96] | 0.88 | 92
Ac-LEGREKVRAK(Ac)I[Aib][Aib]EGK([TTDS-TTDS-TTDS-γGlu-γGlu-γGlu-Palmitoyl])SKWS[Aib]RKK(Ac)-NH2 [peptide of SEQ ID NO: 83] | 0.25 | 94
Ac-LEGREKVRAK(Ac)I[Aib][Aib]EGK([TTDS-TTDS-γGlu-γGlu-Palmitoyl])STFS[αMeK]RAK(Ac)-NH2 [peptide of SEQ ID NO: 9] | 0.7 | 93
Ac-LEGRERVR[Aib]K(Ac)I[Aib][Aib]EGK([TTDS-TTDS-TTDS-γGlu-γGlu-γGlu-Palmitoyl])STWS[Aib]RRK(Ac)-NH2 [peptide of SEQ ID NO: 85] | 0.3 | 92
Ac-LEGREKVRAK(Ac)I[Aib][Aib]EGK([TTDS-TTDS-TTDS-γGlu-γGlu-γGlu-Palmitoyl])STFSKRAK(Ac)-NH2 [peptide of SEQ ID NO: 13] | 2.12 | 91
Ac-LEGRERVRAK(Ac)I[Aib][Aib]EGK([TTDS-TTDS-TTDS-γGlu-γGlu-γGlu-Palmitoyl])ST[Phe(4-F)]S[Aib]RRK(Ac)-NH2 [peptide of SEQ ID NO: 91] | 0.09 | 97
Ac-LEGREKVRAK(Ac)I[Aib][Aib]EGK([TTDS-TTDS-TTDS-γGlu-γGlu-γGlu-Myristoyl])STFS[αMeK]RAK(Ac)-NH2 [peptide of SEQ ID NO: 95] | 1.8 | 91
Ac-LEGREKVRAK(Ac)I[Aib][Aib]EGK([TTDS-TTDS-TTDS-γGlu-γGlu-γGlu-Palmitoyl])ST[αMeF]SRRAK(Ac)-NH2 [peptide of SEQ ID NO: 89] | 0.1 | 97
Ac-LEGREKVRAK(Ac)I[Aib][Aib]EGK([TTDS-TTDS-γGlu-γGlu-γGlu-γGlu-Palmitoyl])STFS[αMeK]RAK(Ac)-NH2 [peptide of SEQ ID NO: 10] | 0.79 | 95
Ac-LEGREKVRAK(Ac)I[Aib][Aib]EGK([TTDS-TTDS-TTDS-γGlu-γGlu-γGlu-Palmitoyl])STWS[αMeK]RAK(Ac)-NH2 [peptide of SEQ ID NO: 11] | 0.83 | 93
Ac-LEGREKVRAK(Ac)I[Aib][Aib]EGK([TTDS-TTDS-TTDS-γGlu-γGlu-γGlu-Palmitoyl])STFS[hLys]RAK(Ac)-NH2 [peptide of SEQ ID NO: 88] | 0.17 | 96
